Consider five molecules from US20070298499, “Methods and compositions for regulating gene expression in plant cells” (published 2007).

The target of data set [1] is T1, RF2b (expressed in BY-2 protoplasts) (UniProt Q6S4P4).
T1 sequence: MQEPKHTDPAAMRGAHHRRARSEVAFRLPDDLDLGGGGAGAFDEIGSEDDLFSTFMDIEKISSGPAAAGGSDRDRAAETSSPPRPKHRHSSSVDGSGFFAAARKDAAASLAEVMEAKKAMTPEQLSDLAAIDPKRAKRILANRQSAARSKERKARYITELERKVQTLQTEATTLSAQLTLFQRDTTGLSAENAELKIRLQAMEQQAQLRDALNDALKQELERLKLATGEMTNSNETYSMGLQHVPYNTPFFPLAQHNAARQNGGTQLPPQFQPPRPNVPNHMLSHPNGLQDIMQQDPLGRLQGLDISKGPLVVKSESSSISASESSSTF
The data set is described as follows: cell_activity. Particulars: GUS reporter in BY-2 protoplasts.

Data set [2] has as its target T2, RF2b (UniProt Q6S4P4 SEQ:1-329).
T2 chain: T1 sequence
Nature of the data set: SPR; value only in figure; lower affinity than RF2a. Particulars: chain copies: 2 (inferred, bZIP dimer), label: biotin (SPR). The method, then: (§1) To compare the binding affinities of RF2a and RF2b with the Box II element and its mutants, real time Surface Plasmon Resonance (“SPR”) measurements were conducted using a BIAcore 2000 instrument. The binding affinities of RF2a and RF2b to these DNA targets were measured on chips on which biotin labeled-Box II, -Box IIm1 and -Box IIm2 elements were immobilized.
(§2) The association and de-association constants were determined using BIAevaluation 3.1 software—using 1:1 binding with a mass transfer model. In general, RF2a has relatively higher binding affinities to the Box II, Box IIm1 and Box IIm2 elements when compared to RF2b. Furthermore, the DNA binding behavior of RF2a and RF2b are quite different from each other. RF2a appears to bind rapidly to the DNA target and slowly dissociates from the target, while RF2b binds slowly to the DNA target and releases from the target relatively quickly. The differences in the affinity of RF2a to the Box II element and its mutants, however, are not as dramatic as the differences of RF2b, while the relative order of affinities to the different target elements is the same for both proteins (FIG. 8).

Data set [3] addresses T2, RF2b. Nature of the data set: SPR; value only in figure; lower affinity than RF2a; slow on, relatively fast off. To be noted: chain copies: 2 (inferred, bZIP dimer); label: biotin (SPR). The method, then:
as §1, §2

Data set [4] addresses T3, RF2a-ΔP (proline-rich domain deleted) (UniProt Q69IL4 SEQ:1-320).
T3 chain: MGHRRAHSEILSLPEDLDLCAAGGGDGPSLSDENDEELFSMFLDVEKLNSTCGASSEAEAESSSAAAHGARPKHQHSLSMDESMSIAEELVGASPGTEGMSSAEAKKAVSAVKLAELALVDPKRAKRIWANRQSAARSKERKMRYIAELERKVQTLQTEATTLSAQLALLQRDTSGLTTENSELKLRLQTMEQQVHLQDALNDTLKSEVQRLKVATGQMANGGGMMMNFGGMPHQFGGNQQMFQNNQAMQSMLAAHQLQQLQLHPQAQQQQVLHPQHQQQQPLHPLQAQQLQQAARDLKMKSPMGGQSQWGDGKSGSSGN
The data set is described as follows: EMSA; 100 ng protein, 5% acrylamide gel. Particulars: tags: N-terminal His6 (pET28a); chain copies: 2 (inferred, bZIP dimer); label: biotin (SPR); 32P (EMSA). The method, then:
(§3) The purified mutant proteins were then analyzed by SDS-PAGE to confirm that each protein was its expected size (FIG. 16(B)). To confirm that each of the mutant proteins bind to the DNA target, i.e., the Box II element and/or its operational derivatives, gel mobility shift assays were carried out with the purified recombinant proteins (FIG. 16(C)). The electrophoretic mobility shift assays were carried out essentially as described in Yin and Beachy (1995). 100 ng of proteins purified from the transformed E. coli were incubated with ³²P-labeled Box IIm1 DNA probe followed by electrophoresis in a 5% acrylamide gel (Yin et al., 1997) (FIG. 16(C)).

Data set [5] addresses T4, RF2a-ΔQ (glutamine-rich domain deleted) (UniProt Q69IL4 SEQ:1-283).
T4 chain: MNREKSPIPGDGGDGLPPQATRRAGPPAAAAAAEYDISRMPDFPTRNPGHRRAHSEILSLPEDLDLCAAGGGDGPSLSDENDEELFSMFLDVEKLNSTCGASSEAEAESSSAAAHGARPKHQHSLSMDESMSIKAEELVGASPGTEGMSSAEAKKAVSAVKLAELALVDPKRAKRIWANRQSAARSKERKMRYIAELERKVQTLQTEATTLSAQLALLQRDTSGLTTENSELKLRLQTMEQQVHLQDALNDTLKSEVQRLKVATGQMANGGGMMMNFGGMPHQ
The data set is described as follows: EMSA; 100 ng protein, 5% acrylamide gel. Particulars: tags: N-terminal His6 (pET28a); chain copies: 2 (inferred, bZIP dimer); label: biotin (SPR); 32P (EMSA). The method, then: as §3

Data set [6] has as its target T5, RF2a-ΔPΔQ (proline- and glutamine-rich domains deleted) (UniProt Q69IL4 SEQ:1-236).
T5 chain: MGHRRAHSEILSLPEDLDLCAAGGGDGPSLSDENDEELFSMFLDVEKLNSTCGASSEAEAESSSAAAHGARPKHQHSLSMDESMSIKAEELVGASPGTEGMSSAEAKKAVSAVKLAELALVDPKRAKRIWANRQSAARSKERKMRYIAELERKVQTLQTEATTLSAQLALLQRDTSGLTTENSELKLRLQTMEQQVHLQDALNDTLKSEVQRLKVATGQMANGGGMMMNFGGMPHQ
The data set is described as follows: EMSA; 100 ng protein, 5% acrylamide gel. To be noted: tags: N-terminal His6 (pET28a); chain copies: 2 (inferred, bZIP dimer); label: biotin (SPR); 32P (EMSA). As to the method: as §3

In data set [7] the target is T6, RF2a-ΔPΔA (proline-rich and acidic domains deleted) (UniProt Q69IL4 SEQ:1-261).
T6 chain: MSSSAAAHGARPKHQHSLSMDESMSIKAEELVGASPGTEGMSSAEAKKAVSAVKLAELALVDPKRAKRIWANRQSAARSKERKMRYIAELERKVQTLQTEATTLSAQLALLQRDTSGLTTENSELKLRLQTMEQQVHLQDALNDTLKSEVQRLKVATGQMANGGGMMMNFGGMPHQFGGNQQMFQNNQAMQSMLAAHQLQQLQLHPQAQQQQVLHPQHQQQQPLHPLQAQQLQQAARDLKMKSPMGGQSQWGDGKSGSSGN
The data set is described as follows: EMSA; 100 ng protein, 5% acrylamide gel. To be noted: tags: N-terminal His6 (pET28a); chain copies: 2 (inferred, bZIP dimer); label: biotin (SPR); 32P (EMSA). As to the method:
as §3

In data set [1], “ACGAATCAATAAAGAAGGACCAGAAGATATAAAGCTGGAACATCTTCACATGCTACCACATGGCTAGCATCTTTACTTTAGCATCTCTATTATTGTAAGAGTGTATAATGACCAGTGTGGCGCTGGACTCCAGTATATAAGGAGCACCAGAGTAGTGTAATAGATCATCGATCAAGCAAGCGAGAGCTCAAACTTCTAAGAGAGCAAGA (double strand) [E fragment with Box IIm1]” had an activity (fold activation) of 7. “ACGAATCAATAAAGAAGGACCAGAAGATATAAAGCTGGAACATCTTCACATGCTACCACATGGCTAGCATCTTTACTTTAGCATCTCTATTATTGTAAGAGTGTATAATGAGGAGTGTGCCCCTTCACTCCAGTATATAAGGAGCACCAGAGTAGTGTAATAGATCATCGATCAAGCAAGCGAGAGCTCAAACTTCTAAGAGAGCAAGA (double strand) [E fragment with Box IIm2]” registered an activity (fold activation) in data set [1] of 5.8.

B1: Box IIm2 (dsDNA)
DNA 1: GGAGTGTGCCCCTTC
DNA 2: GAAGGGGCACACTCC
As to B1, the binding result in the data set with RF2b [2] is given as “binds”.

B2: Box II (dsDNA)
DNA 1: CCAGTGTGCCCCTGG
DNA 2: CCAGGGGCACACTGG
In the case of B2, the binding result in the data set with RF2b [3] is reported as “binds”.

B3: Box IIm1 (dsDNA)
DNA 1: CCAGTGTGGCGCTGG
DNA 2: CCAGCGCCACACTGG
As for B3, the binding result (in data set [4]; in data set [5]; in data set [6]; in data set [7]; with RF2b [2] (32P (EMSA))) was “binds” each time.
